Results on 1 molecule are retold here after PMC2731163, “HoxA-11 and FOXO1A Cooperate to Regulate Decidual Prolactin Expression: Towards Inferring the Core Transcriptional Regulators of Decidual Genes” (PLoS ONE, 2009).

For the assay, the target named is N-terminal Flag tagged human FOXO1A (human, UniProt Q12778 1-655). The assay can be described thus: cell-based or functional assay.
Sequence of N-terminal Flag tagged human FOXO1A (Q12778 whole entry): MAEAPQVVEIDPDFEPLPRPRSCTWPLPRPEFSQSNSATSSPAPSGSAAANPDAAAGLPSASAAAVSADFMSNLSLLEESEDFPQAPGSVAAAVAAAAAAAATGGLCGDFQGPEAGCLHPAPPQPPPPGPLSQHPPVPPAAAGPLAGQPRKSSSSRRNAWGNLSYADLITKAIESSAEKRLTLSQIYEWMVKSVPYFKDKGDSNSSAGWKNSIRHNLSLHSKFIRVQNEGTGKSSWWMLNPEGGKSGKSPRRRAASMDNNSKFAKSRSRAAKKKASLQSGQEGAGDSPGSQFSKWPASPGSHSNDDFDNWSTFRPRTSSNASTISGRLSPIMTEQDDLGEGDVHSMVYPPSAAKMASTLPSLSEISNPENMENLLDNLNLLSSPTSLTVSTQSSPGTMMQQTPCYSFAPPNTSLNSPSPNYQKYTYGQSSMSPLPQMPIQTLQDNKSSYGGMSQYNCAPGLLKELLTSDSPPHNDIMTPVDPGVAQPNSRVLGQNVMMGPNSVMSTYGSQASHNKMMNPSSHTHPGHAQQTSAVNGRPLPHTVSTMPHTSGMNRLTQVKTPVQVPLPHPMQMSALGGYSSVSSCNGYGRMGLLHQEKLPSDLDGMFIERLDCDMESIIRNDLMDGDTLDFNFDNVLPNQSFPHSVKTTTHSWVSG

B1: HoxA11-V5/His fusion protein (natural protein)
chain: not shown
With B1, the “luciferase expression from the dPRL-332/luc3 decidual PRL enhancer reporter in HeLa cells cotransfected with HoxA-11 and FOXO1A, fold change relative to empty expression vector” value was > 3 fold.
